# Laboratory results: the supplement of paper PMC9112550, “Optimization of the antimicrobial peptide Bac7 by deep mutational scanning” (BMC Biology, 2022)
# Test system: Escherichia coli TOP10
# Test: shrunken log2 fold change of peptide-encoding DNA abundance (4.5 h post-induction vs induction); higher = less antimicrobial activity (less host growth inhibition)
# Details: time post-induction: 4.5 h; library: site-saturation at positions 5, 18, 19, 20
# 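Note: peptides expressed intracellularly from a pBAD plasmid library in pooled LB shake-flask culture, induced with 0.3% L-arabinose, DNA abundance read by NGS, three biological replicates, DESeq2 with apeglm shrinkage.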
row,Sequence,shrunken log2 fold change
1,RRIRLRPPRLPRPRPRPCQSPRP,-0.0018
2,RRIRYRPPRLPRPRPRPDSCPRP,0.0675
3,RRIRYRPPRLPRPRPRPDVRPRP,-0.0526
4,RRIRVRPPRLPRPRPRPLTDPRP,0.0682
5,RRIRIRPPRLPRPRPRPADCPRP,0.035
6,RRIRDRPPRLPRPRPRPEMPPRP,0.0164
7,RRIRDRPPRLPRPRPRPNQIPRP,-0.044
8,RRIRCRPPRLPRPRPRPLLQPRP,0.167
9,RRIRGRPPRLPRPRPRPQPCPRP,0.466
10,RRIRLRPPRLPRPRPRPNQWPRP,-0.117
11,RRIRHRPPRLPRPRPRPTMWPRP,0.22
12,RRIRYRPPRLPRPRPRPCTPPRP,-1.14
13,RRIRKRPPRLPRPRPRPCCPPRP,-0.044
14,RRIRRRPPRLPRPRPRPDVAPRP,0.592
15,RRIRYRPPRLPRPRPRPFIQPRP,-0.126
16,RRIRCRPPRLPRPRPRPEMHPRP,0.304
17,RRIRYRPPRLPRPRPRPFQPPRP,-0.375
18,RRIRSRPPRLPRPRPRPLMPPRP,0.121
19,RRIRRRPPRLPRPRPRPRCPPRP,0.605
20,RRIRMRPPRLPRPRPRPKSPPRP,0.325
21,RRIRYRPPRLPRPRPRPMFYPRP,-1.04
22,RRIRKRPPRLPRPRPRPWVYPRP,0.107

row,Sequence,shrunken log2 fold change
1,RRIRDRPPRLPRPRPRPEVHPRP,0.168
2,RRIRGRPPRLPRPRPRPNAMPRP,0.988
3,RRIRFRPPRLPRPRPRPDFGPRP,0.0422
4,RRIRDRPPRLPRPRPRPISFPRP,-0.0563
5,RRIRCRPPRLPRPRPRPAILPRP,-0.659
6,RRIRIRPPRLPRPRPRPQCKPRP,-0.532
7,RRIRGRPPRLPRPRPRPAGHPRP,0.562
8,RRIRVRPPRLPRPRPRPDHWPRP,0.152
9,RRIRCRPPRLPRPRPRPQPHPRP,0.067
10,RRIRGRPPRLPRPRPRPPSDPRP,1.05
11,RRIRARPPRLPRPRPRPNQAPRP,-0.117
12,RRIRTRPPRLPRPRPRPMHEPRP,-0.0192
13,RRIRFRPPRLPRPRPRPCFLPRP,-0.623
14,RRIRHRPPRLPRPRPRPHRTPRP,-0.179
15,RRIRNRPPRLPRPRPRPGARPRP,0.582
16,RRIRVRPPRLPRPRPRPCNNPRP,0.0786
17,RRIRWRPPRLPRPRPRPALTPRP,0.393
18,RRIRMRPPRLPRPRPRPETHPRP,2.51
19,RRIRDRPPRLPRPRPRPIWKPRP,-0.00783
20,RRIRTRPPRLPRPRPRPRWFPRP,0.196
21,RRIRRRPPRLPRPRPRPEVFPRP,0.0496
22,RRIRERPPRLPRPRPRPQQVPRP,-0.0841

row,Sequence,shrunken log2 fold change
1,RRIRGRPPRLPRPRPRPYRIPRP,0.178
2,RRIRPRPPRLPRPRPRPSKRPRP,-0.00797
3,RRIRGRPPRLPRPRPRPWPLPRP,0.797
4,RRIRWRPPRLPRPRPRPKMYPRP,-0.13
5,RRIRQRPPRLPRPRPRPRQPPRP,0.622
6,RRIRKRPPRLPRPRPRPKMEPRP,0.368
7,RRIRARPPRLPRPRPRPDFGPRP,0.106
8,RRIRKRPPRLPRPRPRPPADPRP,0.563
9,RRIRWRPPRLPRPRPRPMWLPRP,0.244
10,RRIRVRPPRLPRPRPRPWGYPRP,-0.0139
11,RRIRPRPPRLPRPRPRPNTPPRP,-0.153
12,RRIRMRPPRLPRPRPRPNSPPRP,0.147
13,RRIRFRPPRLPRPRPRPLFVPRP,-0.424
14,RRIRCRPPRLPRPRPRPKPVPRP,0.179
15,RRIRPRPPRLPRPRPRPGLYPRP,-0.132
16,RRIRLRPPRLPRPRPRPDNDPRP,-0.228
17,RRIRVRPPRLPRPRPRPAGSPRP,0.29
18,RRIRDRPPRLPRPRPRPCAIPRP,0.029
19,RRIRHRPPRLPRPRPRPFGQPRP,-0.162
20,RRIRARPPRLPRPRPRPTDPPRP,0.2
21,RRIRRRPPRLPRPRPRPFCWPRP,0.45
22,RRIRSRPPRLPRPRPRPEWLPRP,0.625

row,Sequence,shrunken log2 fold change
1,RRIRPRPPRLPRPRPRPMKCPRP,-0.00631
2,RRIRGRPPRLPRPRPRPNNPPRP,-0.171
3,RRIRRRPPRLPRPRPRPDRLPRP,0.058
4,RRIRNRPPRLPRPRPRPYLAPRP,-0.327
5,RRIRCRPPRLPRPRPRPHQMPRP,-0.691
6,RRIRSRPPRLPRPRPRPGRVPRP,0.162
7,RRIRTRPPRLPRPRPRPMGDPRP,-0.0264
8,RRIRPRPPRLPRPRPRPTCVPRP,-0.136
9,RRIRCRPPRLPRPRPRPFVNPRP,-0.521
10,RRIRKRPPRLPRPRPRPHRFPRP,-0.0599
11,RRIRERPPRLPRPRPRPASVPRP,-0.0789
12,RRIRHRPPRLPRPRPRPHSAPRP,0.0327
13,RRIRHRPPRLPRPRPRPIRPPRP,-0.125
14,RRIRSRPPRLPRPRPRPNFLPRP,-0.304
15,RRIRERPPRLPRPRPRPFEPPRP,-0.195
16,RRIRSRPPRLPRPRPRPATYPRP,-0.429
17,RRIRSRPPRLPRPRPRPQVCPRP,-0.0852
18,RRIRMRPPRLPRPRPRPIQVPRP,-0.00663
19,RRIRSRPPRLPRPRPRPLHKPRP,0.104
20,RRIRERPPRLPRPRPRPRWSPRP,-0.078
21,RRIRHRPPRLPRPRPRPPWIPRP,0.0139
22,RRIRTRPPRLPRPRPRPTFAPRP,0.459

row,Sequence,shrunken log2 fold change
1,RRIRQRPPRLPRPRPRPASAPRP,0.196
2,RRIRYRPPRLPRPRPRPFRVPRP,-0.0371
3,RRIRQRPPRLPRPRPRPEVAPRP,0.00859
4,RRIRMRPPRLPRPRPRPYALPRP,0.0157
5,RRIRYRPPRLPRPRPRPRPTPRP,0.363
6,RRIRIRPPRLPRPRPRPSWMPRP,-0.562
7,RRIRMRPPRLPRPRPRPKCAPRP,2.89
8,RRIRERPPRLPRPRPRPNICPRP,-0.523
9,RRIRDRPPRLPRPRPRPQTPPRP,0.4
10,RRIRERPPRLPRPRPRPPTNPRP,0.0754
11,RRIRMRPPRLPRPRPRPRWRPRP,0.732
12,RRIRTRPPRLPRPRPRPTGWPRP,0.511
13,RRIRLRPPRLPRPRPRPGSDPRP,-0.149
14,RRIRFRPPRLPRPRPRPIQNPRP,-0.544
15,RRIRMRPPRLPRPRPRPKANPRP,1.96
16,RRIRSRPPRLPRPRPRPTHWPRP,0.451
17,RRIRIRPPRLPRPRPRPIAEPRP,-0.22
18,RRIRKRPPRLPRPRPRPLEMPRP,0.659
19,RRIRQRPPRLPRPRPRPVMNPRP,0.0954
20,RRIRMRPPRLPRPRPRPCWMPRP,0.114
21,RRIRWRPPRLPRPRPRPPWNPRP,0.279
